Experimental data: patent publication US20020035733A1 (AREXIS, published 2002)

These binders were tested against insulin (125I-insulin mixed with unlabeled insulin) (assay: cell-based or functional assay).

| insulin degrading activity in intact COS-1 cells, percentage of wild type activity | Binder |
| --- | --- |
| 95 % of wild type activity | rat insulin degradation enzyme (IDE) variant A890V (valine for alanine at amino acid 890) (enzyme) MRNGLVWLLHPALPSTLHSILGARPPPVKRLCGFPKQIYSTMNNPAIQRIEDHIVKSPEDKREYRGLELANGIKVLLISDPTTDKSSAALDVHIGSLSDPPNIPGLSHFCEHMLFLGTKKYPKENEYSQFLSEHAGSSNAFTSGEHTNYYFDVSHEHLEGALDRFAQFFLCPLFDASCKDREVNAVDSEHEKNVMNDAWRLFQLEKATGNPKHPFSKFGTGNKYTLETRPNQEGIDVREELLKFHSTYYSSNLMAICVLGRESLDDLTNLVVKLFSEVENKNVPLPEFPEHPFQEEHLKQLYKIVPIKDIRNLYVTFPIPDLQQYYKSNPGHYLGHLIGHEGPGSLLSELKSKGWVNTLVGGQKEGARGFMFFIINVDLTEEGLLHVEDIILHMFQYIQKLRAEGPQEWVFQECKDLNAVAFRFKDKERPRGYTSKIAGKLHYYPLNGVLTAEYLLEEFRPDLIDMVLDKLRPENVRVAIVSKSFEGKTDRTEQWYGTQYKQEAIPEDVIQKWQNADLNGKFKLPTKNEFIPTNFEILALEKDATPYPALIKDTAMSKLWFKQDDKFFLPKACLNFEFFSPFAYVDPLHCNMAYLYLELLKDSLNEYAYAAELAGLSYDLQNTIYGMYLSVKGYNDKQPILLKKITEKMATFEIDKKRFEIIKEAYMRSLNNFRAEQPHQHAMYYLRLLMTEVAWTKDELKEALDDVTLPRLKAFIPQLLSRLHIEALLHGNITKQAALGVMQMVEDTLIEHAHTKPLLPSQLVRYREVQLPDRGWFVYQRRNEVHNNCGIEIYYQTDMQSTSENMFLELFCQIISEPCFNTLRTKEQLGYIVFSGPRRANGIQGLRFIIQSEKPPHYLESRVEAFLITMEKAIEDMTEEAFQKHIQALVIRRLDKPKKLSAECAKYWGEIISQQYNYDRDNIEVAYLKTLSKDDIIKFYKEMLAVDAPRRHKVSVHVLAREMDSCPVVGEFPSQNDINLSEAPPLPQPEVIHNMTEFKRGLPLFPLVKPHINFMAAKL |
| 69 % of wild type activity | rat insulin degradation enzyme (IDE), GK allele containing both H18R and A890V (enzyme) MRNGLVWLLHPALPSTLRSILGARPPPVKRLCGFPKQIYSTMNNPAIQRIEDHIVKSPEDKREYRGLELANGIKVLLISDPTTDKSSAALDVHIGSLSDPPNIPGLSHFCEHMLFLGTKKYPKENEYSQFLSEHAGSSNAFTSGEHTNYYFDVSHEHLEGALDRFAQFFLCPLFDASCKDREVNAVDSEHEKNVMNDAWRLFQLEKATGNPKHPFSKFGTGNKYTLETRPNQEGIDVREELLKFHSTYYSSNLMAICVLGRESLDDLTNLVVKLFSEVENKNVPLPEFPEHPFQEEHLKQLYKIVPIKDIRNLYVTFPIPDLQQYYKSNPGHYLGHLIGHEGPGSLLSELKSKGWVNTLVGGQKEGARGFMFFIINVDLTEEGLLHVEDIILHMFQYIQKLRAEGPQEWVFQECKDLNAVAFRFKDKERPRGYTSKIAGKLHYYPLNGVLTAEYLLEEFRPDLIDMVLDKLRPENVRVAIVSKSFEGKTDRTEQWYGTQYKQEAIPEDVIQKWQNADLNGKFKLPTKNEFIPTNFEILALEKDATPYPALIKDTAMSKLWFKQDDKFFLPKACLNFEFFSPFAYVDPLHCNMAYLYLELLKDSLNEYAYAAELAGLSYDLQNTIYGMYLSVKGYNDKQPILLKKITEKMATFEIDKKRFEIIKEAYMRSLNNFRAEQPHQHAMYYLRLLMTEVAWTKDELKEALDDVTLPRLKAFIPQLLSRLHIEALLHGNITKQAALGVMQMVEDTLIEHAHTKPLLPSQLVRYREVQLPDRGWFVYQRRNEVHNNCGIEIYYQTDMQSTSENMFLELFCQIISEPCFNTLRTKEQLGYIVFSGPRRANGIQGLRFIIQSEKPPHYLESRVEAFLITMEKAIEDMTEEAFQKHIQALVIRRLDKPKKLSAECAKYWGEIISQQYNYDRDNIEVAYLKTLSKDDIIKFYKEMLAVDAPRRHKVSVHVLAREMDSCPVVGEFPSQNDINLSEAPPLPQPEVIHNMTEFKRGLPLFPLVKPHINFMAAKL |
| 89 % of wild type activity | rat insulin degradation enzyme (IDE) variant H18R (arginine for histidine at amino acid 18) (enzyme) MRNGLVWLLHPALPSTLRSILGARPPPVKRLCGFPKQIYSTMNNPAIQRIEDHIVKSPEDKREYRGLELANGIKVLLISDPTTDKSSAALDVHIGSLSDPPNIPGLSHFCEHMLFLGTKKYPKENEYSQFLSEHAGSSNAFTSGEHTNYYFDVSHEHLEGALDRFAQFFLCPLFDASCKDREVNAVDSEHEKNVMNDAWRLFQLEKATGNPKHPFSKFGTGNKYTLETRPNQEGIDVREELLKFHSTYYSSNLMAICVLGRESLDDLTNLVVKLFSEVENKNVPLPEFPEHPFQEEHLKQLYKIVPIKDIRNLYVTFPIPDLQQYYKSNPGHYLGHLIGHEGPGSLLSELKSKGWVNTLVGGQKEGARGFMFFIINVDLTEEGLLHVEDIILHMFQYIQKLRAEGPQEWVFQECKDLNAVAFRFKDKERPRGYTSKIAGKLHYYPLNGVLTAEYLLEEFRPDLIDMVLDKLRPENVRVAIVSKSFEGKTDRTEQWYGTQYKQEAIPEDVIQKWQNADLNGKFKLPTKNEFIPTNFEILALEKDATPYPALIKDTAMSKLWFKQDDKFFLPKACLNFEFFSPFAYVDPLHCNMAYLYLELLKDSLNEYAYAAELAGLSYDLQNTIYGMYLSVKGYNDKQPILLKKITEKMATFEIDKKRFEIIKEAYMRSLNNFRAEQPHQHAMYYLRLLMTEVAWTKDELKEALDDVTLPRLKAFIPQLLSRLHIEALLHGNITKQAALGVMQMVEDTLIEHAHTKPLLPSQLVRYREVQLPDRGWFVYQRRNEVHNNCGIEIYYQTDMQSTSENMFLELFCQIISEPCFNTLRTKEQLGYIVFSGPRRANGIQGLRFIIQSEKPPHYLESRVEAFLITMEKAIEDMTEEAFQKHIQALAIRRLDKPKKLSAECAKYWGEIISQQYNYDRDNIEVAYLKTLSKDDIIKFYKEMLAVDAPRRHKVSVHVLAREMDSCPVVGEFPSQNDINLSEAPPLPQPEVIHNMTEFKRGLPLFPLVKPHINFMAAKL |
